# Results as given in the nanobody polyreactivity screen of Harvey et al. (2022).
# Test: yeast display, Sf9 membrane polyspecificity reagent, FACS + sequencing; frameworks hold sequencing errors
# Summary of the method: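 After 36–48 hours of galactose induction, yeast (Saccharomyces cerevisiae BJ5465) displaying a synthetic nanobody library were stained at 4 °C for 1 hour with 10% biotinylated, detergent-solubilized Sf9 membrane reagent. Streptavidin microbeads enriched the stained cells before FACS sorting into low and high (top ~1%) gates on anti-HA and streptavidin fluorescence. Each clone's polyreactivity label reflects its gate of origin.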
row,Sequence,polyreactivity (PSR sort gate)
1,QVQLVESGGGLVQAGGSLRLSCAASGRTFRVYAMGWYRQAPGKERELVASITNDGSTYADSVKGRFTISRDNAKNTVYLQMNSLKPEDTAVYFCAARFPQWRYSRRTGERFDYWGQGTQVTVSS,low polyreactivity
2,QVQLVESGGGLVQAGGSLRLSCAASGRTFRVYAMGWYRQAPWKERELVAAISGRGGRTYYADSVKGRFTISRDNAKNTVYLQMNSLKPEDTAVYYCTADVGVYHDDYWGQGTQVTVSS,high polyreactivity
3,QVQLVESGGGLVQAGGSLRLSCAASGRTFRVYTMGWYRQAPGKERELVAAISSRGGSTYYADSVKGRFTISRDNAKNTVYLQMYSLKPEDTAVYYCAASKFRSGGYDYWGQGTQVTVSS,high polyreactivity
4,QVQLVESGGGLVQAGGSLRLSCAASGRTFRWYAMGRYRQAPGKERELVAVISRGGGSTTYADSVKGRFTISRDNAKNTVYLQMNSLKPEDTAVYYCAAQWSGSVGSRPMYYWGQGSQVTVSS,high polyreactivity
5,QVQLVESGGGLVQAGGSLRLSCAASGRTFRWYTMGWYRQAPGKEREFVAAITWSGSSTNYADSVKGRFTISRDNEKNTVYLQMNSLKPEDTAFYYCAAENRRRRDDYWGQGTQVTVSS,high polyreactivity
6,QVQLVESGGGLVQAGGSLRLSCAASGRTFRYNALGWYRPAPGKERELVASITSGGSTNYADSVKGRFTMSRDNAKNTVYLQMNSLKPEDTAVYYCASDERRPYWQHSIGSGRPFDYWGQGTQVTVSS,low polyreactivity
7,QVQLVESGGGLVQAGGSLRLSCAASGRTFRYNAMGWYRQAPGKERELVAAITQSGGSTYYADSVWGRFTISRDNAKNTVYLQMNSLKPDDTAVYYCAKVRERINYDYWGQGTQVTVSS,low polyreactivity
8,QVQLVESGGGLVQAGGSLRLSCAASGRTFRYNAMGWYRQAPGKERELVAAITWGGGSTYYADSVKGRFTISRDNAKYTVYLQMNSLKPEDTAVYYCNADYIGNYQSIYQYDYWGQGTQVTVSS,low polyreactivity
9,QVQLVESGGGLVQAGGSLRLSCAASGRTFRYNAMGWYRQAPGKERELVASISWRGGSTYYADSVKGRFTISRDNAKNTVYLPMNSLKPEDTAVYYCAADAAHSEYDDWGQGTQVTVSS,high polyreactivity
10,QVQLVESGGGLVQAGGSLRLSCAASGRTFRYNTMGWYRQAPGKERELVAALTYRGGRTYYADSVKGRFTISRDHAKNTVYLQMNSLKPEDTAVYYCARDYYGSVRFDHWGQGTQVTVSS,high polyreactivity
11,QVQLVESGGGLVQAGGSLRLSCAASGRTFRYNTMGWYRQAPGKERELVARITRSGGSTYYADSVKGRFTISRDNAKNTVYLQMNSLKPEDTAVYYCAAVPILVYRWFQSYTGDYDYWGQGTQVTVSS,low polyreactivity
12,QVQLVESGGGLVQAGGSLRLSCAASGRTFRYYAIGWYRQAPGKERELVAAISSSGASTYDAESVKGRFTISRDNAKYTVYLQMNSLKPEDTAVYYCRSGILFYSRYDYWGQGTQVTVSS,low polyreactivity
13,QVQLVESGGGLVQAGGSLRLSCAASGRTFRYYAMGWNRQAPGKESELVASISRSGGSTYYADSVKGRFTISRDNAKITVYLQMNSLKPEDTAVYYCAVGKGSHYLGFDYWGQGTQVTVSS,high polyreactivity
14,QVQLVESGGGLVQAGGSLRLSCAASGRTFRYYAMGWYRQAPGKERELVAAIDTSSGSTYYADSVKGRFTISRDNAKNTVYLQMKSLKPEDTAVYYCNATWWIPLFYDYWGQGTQVTVSS,low polyreactivity
15,QVQLVESGGGLVQAGGSLRLSCAASGRTFRYYAMGWYRQAPGKERELVAAITSGGSTYYADSVKGRFTISRDNAKNTVYLLMNSLKPEDTAAYYCAAEYVYPYWNGFDYWGQGTQVTVSS,low polyreactivity
16,QVQLVESGGGLVQAGGSLRLSCAASGRTFRYYAMGWYRQAPGKERELVAAITSGGSTYYADSVKGRFTISRDNAKNTVYLQMNSLKPEDTAVYYCNKDFTRTWTRHGDDYWGQGTQVTVSS,high polyreactivity

row,Sequence,polyreactivity (PSR sort gate)
1,QVQLVESGGGLVQAGGSLRLSCAASGRTFRYYAMGWYRQAPGKERELVAAITVRTGSTSYADSVKGRFTISRDNAKNTVYLQMNSLKPEDTAVYYCAATSRYFQPPGYGGGRIGYGYWGQGTQVTVSS,high polyreactivity
2,QVQLVESGGGLVQAGGSLRLSCAASGRTFRYYAMGWYRQAPGKERELVASISRRGGSTHYADSVKVRFTISRDNAKNTVYLQMNSLKPEDTAVYYCAAYGYYTKVTKYDYWGQGTQVTVSS,high polyreactivity
3,QVQLVESGGGLVQAGGSLRLSCAASGRTFRYYTMGWYRQAPGKERELVAAISWSSGSTYYADSVKGRFTISRDNAKNTVYLQMNSLKPEDTAVYYCAASRVRREYVGQDVGFVGYDSWGQGTQVTVSS,high polyreactivity
4,QVQLVESGGGLVQAGGSLRLSCAASGRTFRYYTMGWYRQAPGTERELVAAITGGSRTNYADSVKGRFTISRDNAKNTVYLQMNSLKPEDTAVYYCAARRSYLLRYDYWGQGTQVTVSS,high polyreactivity
5,QVQLVESGGGLVQAGGSLRLSCAASGRTFSANAMGWYRLAPGKERELVATISSGGRTNYADSVKGRFTISRDNAKNTVYLQMNSLKPEDTAVYYCAKRGPYNRWYGRYDYWGQGTQVTVSS,low polyreactivity
6,QVQLVESGGGLVQAGGSLRLSCAASGRTFSANTMGWYRQAPGKERELVAAISKSGGSTYYADSVKGRFTISRDNAKNTVYLQMNSLKPEDTAVYYCAAARNVYRGRVYWGRYDYWGQGTQVTVSS,high polyreactivity
7,QVQLVESGGGLVQAGGSLRLSCAASGRTFSAYAMGWYRQAPGKERELVATISRSGGRTYYADSVKGRFTISRDNAKNTVYLQMNSLKPEDTAVYYCNARILRDNQGTYDYWGQGTQVTVSS,high polyreactivity
8,QVQLVESGGGLVQAGGSLRLSCAASGRTFSDYAMGWYRQAPGKERELVAAITSSGGSTYYADSVKGRFTISRDNAKNTVYLQMNSLKPEDTAVYYCAKVWYGDRNIDRYDYWGQGTQVTVSS,high polyreactivity
9,QVQLVESGGGLVQAGGSLRLSCAASGRTFSGNAMGWYIQAPRKDRELVAAISSGGSTNYADSVKGRFTISRDNAKNTVYLQMNSLEPEDTAVYYCAADEWRFPSYAYYYWGQGTQVTVSS,low polyreactivity
10,QVQLVESGGGLVQAGGSLRLSCAASGRTFSGNAMGWYRQAPGKEREMVAAITGRGGTTYYADSVKGRFTISRDNAKKTVFLQMNSLKPEDTAVYYCAADTKLSYQWFDYWGQGTQVTVSS,high polyreactivity
11,QVQLVESGGGLVQAGGSLRLSCAASGRTFSGYAMGWYRQAPGKEREFVAAISRSGGSTYYADSVKGRFTISRDNAKNTVYLQMNSLKPEDIAVYYCAAQIWYSKRLAYKAYDYWGQGTQVTVSS,high polyreactivity
12,QVQLVESGGGLVQAGGSLRLSCAASGRTFSGYAMGWYRQAPGKERELVAAITSSGSSTYYADSVKGRFTISRDNAKNTVYLQMNSQKPEDTSVYYCAATPQAHSERYYYQRKYDYWGQGTQVTVSS,low polyreactivity
13,QVQLVESGGGLVQAGGSLRLSCAASGRTFSHYAMGWYRQAPGKERELVAAITWSGGRTYYADSVKGRFTISRDNAKNTVYLQMNSLKPEDTAVYYCAAGKYWPGNYWGQGTQVTVSS,high polyreactivity
14,QVQLVESGGGLVQAGGSLRLSCAASGRTFSIYAKGWYRQAPGKERELVAAISNGGRTKYADSVKGRFTISRDNAKNTVYLQMNSLKPEDTAVYYCAASSYTHKRYPSPYDYWGQGTQVTVSS,high polyreactivity
15,QVQLVESGGGLVQAGGSLRLSCAASGRTFSKNAMGWYRQAPGKERELVAAISWSGGRTYYADSVKGRFTISRDNAKNTVYLQMNSLKPEDTAVYYCNAYYPGNGPRSTSTRYEYWGQGTQVTVSS,high polyreactivity
